Where two headings read alike, the source gives them in different places.
T1: human IL-17F homodimer (human, UniProt Q96PD4 31-163)
T1 sequence: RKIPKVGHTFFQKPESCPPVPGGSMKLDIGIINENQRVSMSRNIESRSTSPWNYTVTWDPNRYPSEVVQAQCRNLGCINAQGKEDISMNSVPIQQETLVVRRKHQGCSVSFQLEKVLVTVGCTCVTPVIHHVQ

B1: human IL-23 (IL-23p19/IL-12B heterodimer) (ligand)
chain 1: RAVPGGSSPAWTQCQQLSQKLCTLAWSAHPLVGHMDLREEGDEETTNDVPHIQCGDGCDPQGLRDNSQFCLQRIHQGLIFYEKLLGSDIFTGEPSLLPDSPVGQLHASLLGLSQLLQPEGHHWETQQIPSLSPSQPWQRLLLRFKILRSLQAFVAVAARVFAHGAATLSP
chain 2: IWELKKDVYVVELDWYPDAPGEMVVLTCDTPEEDGITWTLDQSSEVLGSGKTLTIQVKEFGDAGQYTCHKGGEVLSHSLLLLHKKEDGIWSTDILKDQKEPKNKTFLRCEAKNYSGRFTCWWLTTISTDLTFSVKSSRGSSDPQGVTCGAATLSAERVRGDNKEYEYSVECQEDSACPAAEESLPIEVMVDAVHKLKYENYTSSFFIRDIIKPDPPKNLQLKPLKNSRQVEVSWEYPDTWSTPHSYFSLTFCVQVQGKSKREKKDRVFTDKTSATVICRKNASISVRAQDRYYSSSWSEWASVPCS
B2: 339-33 (antibody, human IgG1, V domains shown)
VH: QVQLVQSGAEVKKPGASVKVSCKASGYTFTEYTMHWVRQAPGQRLEWMGGINPNSGGVSYNQNFKGRVTITRDTSASTAYMELSSLRSEDTAVYYCARGGDGYYTNYFDIDYWGQGTTVTVSS
VL: EIVLTQSPDFQSVTPKEKVTITCSASSSVNYMHWYQQKPDQSPKLLIKDTSKLASGVPSRFSGSGSGTDFTLTINSLEAEDAATYYCQQWNSHPLTFGQGTKLEIK
B3: 339-126 (antibody, human IgG1, V domains shown)
VH: QVQLVQSGAEVKKPGASVKVSCKASGYTFTEYTMHWVRQAPGQRLEWMGGINPNSGGVSYNQNFKGRVTITRDTSASTAYMELSSLRSEDTAVYYCARGGDGYYTNYFDIDYWGQGTTVTVSS
VL: DIQMTQSPSSLSASVGDRVTITCSASSSVNYMHWYQQKPGKVPKLLIYDTSKLASGVPSRFSGSGSGTDFTLTISSLQPEDVATYYCQQWNSHPLTFGQGTKLEIK
B4: 339-35 (antibody, human IgG1, V domains shown)
VH: QVQLVQSGAEVKKPGASVKVSCKASGYTFNEYTMHWVKQSHGQRLEWMGGINPNSGGVSYNQNFKGRVTITRDTSASTAYMELSSLRSEDTAVYYCARGGDGYYTNYFDIDYWGQGTTVTVSS
VL: EIVLTQSPDFQSVTPKEKVTITCSASSSVNYMHWYQQKPDQSPKLLIKDTSKLASGVPSRFSGSGSGTDFTLTINSLEAEDAATYYCQQWNSHPLTFGQGTKLEIK
B5: 339-71 (antibody, human IgG1, V domains shown)
VH: QVQLVQSGAEVKKPGASVKVSCKASGYTFTEYTMHWVRQAPGQRLEWMGGINPNSGGVSYNQNFKGKATLTVDTSASTAYMELSSLRSEDTAVYYCARGGDGYYTNYFDIDYWGQGTTVTVSS
VL: EIVLTQSPDFQSVTPKEKVTITCSASSSVNYMHWYQQKPDQSPKLLIKDTSKLASGVPSRFSGSGSGTDFTLTINSLEAEDAATYYCQQWNSHPLTFGQGTKLEIK
B6: 339-37 (antibody, human IgG1, V domains shown)
VH: QVQLVQSGAEVKKPGASVKVSCKASGYTFTEYTMHWVRQAPGQRLEWMGGINPNSGGVSYNQNFKGRVTITRDTSSSTAYMELSSLRSEDTAVFYCARGGDGYYTNYFDIDYWGQGTTVTVSS
VL: EIVLTQSPDFQSVTPKEKVTITCSASSSVNYMHWYQQKPDQSPKLLIKDTSKLASGVPSRFSGSGSGTDFTLTINSLEAEDAATYYCQQWNSHPLTFGQGTKLEIK
B7: 339-38 (antibody, human IgG1, V domains shown)
VH: QVQLVQSGAEVKKPGASVKVSCKASGYTFNEYTMHWVKQSHGQRLEWMGGINPNSGGVSYNQNFKGKATLTVDTSASTAYMELSSLRSEDTAVYYCARGGDGYYTNYFDIDYWGQGTTVTVSS
VL: EIVLTQSPDFQSVTPKEKVTITCSASSSVNYMHWYQQKPDQSPKLLIKDTSKLASGVPSRFSGSGSGTDFTLTINSLEAEDAATYYCQQWNSHPLTFGQGTKLEIK
B8: 339-39 (antibody, human IgG1, V domains shown)
VH: QVQLVQSGAEVKKPGASVKVSCKASGYTFNEYTMHWVKQSHGQRLEWMGGINPNSGGVSYNQNFKGKATLTVDTSSSTAYMELSSLRSEDTAVFYCARGGDGYYTNYFDIDYWGQGTTVTVSS
VL: EIVLTQSPDFQSVTPKEKVTITCSASSSVNYMHWYQQKPDQSPKLLIKDTSKLASGVPSRFSGSGSGTDFTLTINSLEAEDAATYYCQQWNSHPLTFGQGTKLEIK
B9: 339-127 (antibody, human IgG1, V domains shown)
VH: QVQLVQSGAEVKKPGASVKVSCKASGYTFNEYTMHWVKQSHGQRLEWMGGINPNSGGVSYNQNFKGRVTITRDTSASTAYMELSSLRSEDTAVYYCARGGDGYYTNYFDIDYWGQGTTVTVSS
VL: DIQMTQSPSSLSASVGDRVTITCSASSSVNYMHWYQQKPGKVPKLLIYDTSKLASGVPSRFSGSGSGTDFTLTISSLQPEDVATYYCQQWNSHPLTFGQGTKLEIK
B10: 339-128 (antibody, human IgG1, V domains shown)
VH: QVQLVQSGAEVKKPGASVKVSCKASGYTFTEYTMHWVRQAPGQRLEWMGGINPNSGGVSYNQNFKGKATLTVDTSASTAYMELSSLRSEDTAVYYCARGGDGYYTNYFDIDYWGQGTTVTVSS
VL: DIQMTQSPSSLSASVGDRVTITCSASSSVNYMHWYQQKPGKVPKLLIYDTSKLASGVPSRFSGSGSGTDFTLTISSLQPEDVATYYCQQWNSHPLTFGQGTKLEIK
B11: 339-105 (antibody, human IgG1, V domains shown)
VH: QVQLVQSGAEVKKPGASVKVSCKASGYTFTEYTMHWVRQAPGQRLEWMGGINPNSGGVSYNQNFKGRVTITRDTSSSTAYMELSSLRSEDTAVFYCARGGDGYYTNYFDIDYWGQGTTVTVSS
VL: DIQMTQSPSSLSASVGDRVTITCSASSSVNYMHWYQQKPGKVPKLLIYDTSKLASGVPSRFSGSGSGTDFTLTISSLQPEDVATYYCQQWNSHPLTFGQGTKLEIK
B12: 339-125 (antibody, human IgG1, V domains shown)
VH: QVQLVQSGAEVKKPGASVKVSCKASGYTFNEYTMHWVKQSHGQRLEWMGGINPNSGGVSYNQNFKGKATLTVDTSASTAYMELSSLRSEDTAVYYCARGGDGYYTNYFDIDYWGQGTTVTVSS
VL: DIQMTQSPSSLSASVGDRVTITCSASSSVNYMHWYQQKPGKVPKLLIYDTSKLASGVPSRFSGSGSGTDFTLTISSLQPEDVATYYCQQWNSHPLTFGQGTKLEIK
B13: 339-104 (antibody, human IgG1, V domains shown)
VH: QVQLVQSGAEVKKPGASVKVSCKASGYTFNEYTMHWVKQSHGQRLEWMGGINPNSGGVSYNQNFKGKATLTVDTSSSTAYMELSSLRSEDTAVFYCARGGDGYYTNYFDIDYWGQGTTVTVSS
VL: DIQMTQSPSSLSASVGDRVTITCSASSSVNYMHWYQQKPGKVPKLLIYDTSKLASGVPSRFSGSGSGTDFTLTISSLQPEDVATYYCQQWNSHPLTFGQGTKLEIK

How the values were obtained:
[1] = target: human IL-23Rα/human IL-12Rβ1 on BaF3 transfectants (human, UniProt Q5VWK5 24-629; P42701 24-662); assay: cell-based or functional assay
human IL-17A homodimer [2] = target: T2, human IL-17A homodimer (human, UniProt Q16552 24-155); assay: cell-based or functional assay
[3] = target: T3, human IL-17A/F heterodimer (human, UniProt Q16552 24-155; Q96PD4 31-163); assay: cell-based or functional assay
human IL-17F homodimer [4] = target: T1, human IL-17F homodimer; assay: cell-based or functional assay
human IL-17A homodimer [5] = target: T2, human IL-17A homodimer; assay: cell-based or functional assay; remark: listed apart in the source
[6] = target: T3, human IL-17A/F heterodimer; assay: cell-based or functional assay; remark: listed apart in the source
human IL-17F homodimer [7] = target: T1, human IL-17F homodimer; assay: cell-based or functional assay; remark: listed apart in the source
human IL-17A homodimer [8] = target: T2, human IL-17A homodimer; assay: SPR Biacore T100, captured antibody, bivalent analyte model
Protocol: (§1) Binding kinetics and affinity studies were performed on a BIACORE® T100 system (GE Healthcare, Piscataway, N.J.). Methods for the BIACORE® T100 were programmed using BIACORE® T100 Control Software, v 2.0. For these experiments, the humanized anti-human IL-17A/F antibodies were captured onto a CM4 sensor chip via either goat anti-human IgG Fc-gamma antibody (Jackson ImmunoResearch, West Grove, Pa.) or goat anti-mouse IgG Fc-gamma antibody (Jackson ImmunoResearch). Binding experiments with the IL-17 molecules were performed at 25° C. in a buffer of 10 mM HEPES, 150 mM NaCl, 3 mM EDTA, 0.05% Surfactant P20 (GE Healthcare), 1 mg/mL bovine serum albumin, pH 7.4.
(§2) The capture antibody, goat anti-human IgG Fc-gamma, was diluted to concentration of 20 μg/mL in 10 mM sodium acetate pH 5.0, and then covalently immobilized to all four flow cells of a CM4 sensor chip using amine coupling chemistry (EDC:NHS). […] A capture antibody density of approximately 5000 RU was obtained. The humanized anti-human IL-17A/F antibodies were captured onto flow cell 2, 3, or 4 of the CM4 chip at a density ranging from 60-150 RU. Capture of the test antibodies to the immobilized surface was performed at a flow rate of 10 μL/min. The BIACORE® instrument measures the mass of protein bound to the sensor chip surface, and thus, capture of the test antibody was verified for each cycle. […] The serial dilutions were injected over the surface and allowed to specifically bind to the test antibody captured on the sensor chip. Duplicate injections of each antigen concentration were performed with an association time of 7 minutes and dissociation time of 15 minutes. Kinetic binding studies were performed with a flow rate of 50 μL/min. In between cycles, the flow cell was washed with 20 mM hydrochloric acid to regenerate the surface. This wash step removed both the captured test antibody and any bound antigen from the immobilized antibody surface. The test antibody was subsequently captured again in the next cycle.
(§3) Data was compiled using the BIACORE® T100 Evaluation software (version 2.0).

[9] = target: T3, human IL-17A/F heterodimer; assay: as above
Protocol: as §1, §2, §3

human IL-17F homodimer [10] = target: T1, human IL-17F homodimer; assay: as above
Protocol: as §1, §2, §3

Chain of human IL-23Rα/human IL-12Rβ1 on BaF3 transfectants (Q5VWK5 24-629, chain 1 of 2, other chains not shown): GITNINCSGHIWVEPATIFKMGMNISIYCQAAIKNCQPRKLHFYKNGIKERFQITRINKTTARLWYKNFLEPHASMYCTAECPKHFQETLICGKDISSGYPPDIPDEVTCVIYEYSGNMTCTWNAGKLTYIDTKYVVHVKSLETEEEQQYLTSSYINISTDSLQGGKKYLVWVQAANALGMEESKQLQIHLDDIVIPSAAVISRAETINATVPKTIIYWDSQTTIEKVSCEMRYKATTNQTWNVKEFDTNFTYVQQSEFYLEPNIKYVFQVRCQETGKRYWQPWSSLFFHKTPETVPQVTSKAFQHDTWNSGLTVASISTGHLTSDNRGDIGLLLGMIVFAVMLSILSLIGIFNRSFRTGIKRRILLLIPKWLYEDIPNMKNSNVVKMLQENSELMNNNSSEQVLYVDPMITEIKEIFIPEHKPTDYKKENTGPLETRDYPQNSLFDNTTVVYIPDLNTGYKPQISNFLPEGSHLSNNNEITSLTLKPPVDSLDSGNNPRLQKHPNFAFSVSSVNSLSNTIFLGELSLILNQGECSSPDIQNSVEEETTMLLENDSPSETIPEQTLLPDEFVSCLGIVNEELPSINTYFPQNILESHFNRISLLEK

Binder | IC50, NIH/3T3/KZ170 NF-kB luciferase reporter (human IL-17A homodimer [5]) [nM] | IC50, NIH/3T3/KZ170 NF-kB luciferase reporter [6] [nM] | IC50, NIH/3T3/KZ170 NF-kB luciferase reporter (human IL-17F homodimer [7]) [nM] | further results
B1 | – | – | – | EC50, STAT3 phosphorylation in Baf3/huIL-23Ra/huIL-12Rb1 transfectants [1]: 0.02 nM
B2 | – | – | – | IC50, NIH/3T3/KZ170 NF-kB luciferase reporter (human IL-17A homodimer [2]): > 600 nM; IC50, NIH/3T3/KZ170 NF-kB luciferase reporter [3]: 9.7 nM; IC50, NIH/3T3/KZ170 NF-kB luciferase reporter (human IL-17F homodimer [4]): 1.7 nM
B3 | – | – | – | IC50, NIH/3T3/KZ170 NF-kB luciferase reporter (human IL-17A homodimer [2]): > 600 nM; IC50, NIH/3T3/KZ170 NF-kB luciferase reporter [3]: 24 nM; IC50, NIH/3T3/KZ170 NF-kB luciferase reporter (human IL-17F homodimer [4]): 1.6 nM
B4 | > 600 | 2.4 | 0.64 | –
B5 | 16 | 0.37 | 0.2 | –
B6 | > 600 | 20 | 3.5 | –
B7 | 8.2 | 0.27 | 0.27 | Kd (human IL-17A homodimer [8]): 1 nM; koff (human IL-17A homodimer [8]): 0.005 s⁻¹; kon (human IL-17A homodimer [8]): 4e+06 M⁻¹ s⁻¹; Kd [9]: 0.4 nM; koff [9]: 0.0004 s⁻¹; kon [9]: 1e+06 M⁻¹ s⁻¹; Kd (human IL-17F homodimer [10]): 0.3 nM; koff (human IL-17F homodimer [10]): 0.0006 s⁻¹; kon (human IL-17F homodimer [10]): 2e+06 M⁻¹ s⁻¹
B8 | 7.6 | 0.23 | 0.25 | –
B9 | 190 | 3.4 | 0.5 | –
B10 | 5.1 | 0.41 | 0.25 | –
B11 | > 600 | 23 | 2.6 | –
B12 | 1.5 | 0.81 | 0.83 | Kd (human IL-17A homodimer [8]): 1 nM; koff (human IL-17A homodimer [8]): 0.003 s⁻¹; kon (human IL-17A homodimer [8]): 2e+06 M⁻¹ s⁻¹; Kd [9]: 0.3 nM; koff [9]: 0.0006 s⁻¹; kon [9]: 2e+06 M⁻¹ s⁻¹; Kd (human IL-17F homodimer [10]): 0.1 nM; koff (human IL-17F homodimer [10]): 0.0002 s⁻¹; kon (human IL-17F homodimer [10]): 2e+06 M⁻¹ s⁻¹
B13 | 1.5 | 0.83 | 0.83 | –

— patent US20170275357A1 (Bristol-Myers Squibb, published 2017)
